From the supplement of paper PMC9170038

System: MS2 coat protein
Assay: apparent KD of MS2 coat protein; designed switch direction (-1 OFF switch, 1 ON switch): -1; higher = weaker reporter binding
Summary of the method: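 Each step of the titration lasted 0.8–1.5 h at the lowest concentration and 10–20 min at the highest. The protein, SNAP-549-labelled MS2 coat protein, went from 0.7 or 1.5 nM doubling to 3 µM over RNA switches transcribed on Illumina chips by stalled E. coli RNA polymerase. Normalised cluster fluorescence was curve-fitted, and the per-design median over clusters is given as apparent KD.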

[1] = input ligand: microRNA oligo, concentration not stated
[2] = Eterna round: R95, input ligand: microRNA oligo, concentration not stated

Row | Sequence | apparent KD of MS2 coat protein (input ligand: FMN 200 uM) [nM] | apparent KD of MS2 coat protein [1] [nM] | apparent KD of MS2 coat protein (input ligand: none) [nM] | apparent KD of MS2 coat protein [2] [nM]
1 | CUUGUUUAUGUAGGAUAUGCCUGGCGUGCCUUUGCAGAAGGACAUGAGGAUCACCCAUGUAACAUGAGGCUCACCCAUGUCGCA [salish99_ExNG1_r04_104] (Eterna round: R96, puzzle: Exclusion NG 1) | 376 | 256 | 353 | –
2 | CUUGUUUAUGUAGGAUAUGCCUGGCGUGCCUUUGCAGAAGGACAUGAGGAUCACCCAUGUAACAUGAGGCUCACCCUUGUCGCC [salish99_ExNG1_r04_116] (Eterna round: R96, puzzle: Exclusion NG 1) | 146 | 90.1 | 114 | –
3 | CUUUAGUAAGGAUAUCAGCUUAGGAGGUUGGUAAUGAGAGCUGAGAAGGUACAUGAGGAUCACCCAUGUUAGUU [JL Zatite mod 9] (puzzle: Exclusion 4) | – | – | – | 17.1
4 | CUUUAGUGAGGAUAUCAGUAGUAAUACAAUAGUAUUACUACUGAGAAGGCACAUGAGGAUCACCCAUGUUCUUC [Mat - Exclusion 4 - Mod of Omei - D77] (puzzle: Exclusion 4) | – | – | – | 18.8
5 | CUUUUGUGAGGAUAUCAGUAGUAAAAUAAUAAAAUUACUACUGAGAAGGCACAUGAGGAUCACCCAUGUUCCUC [salish99_ex4_r3_019] (puzzle: Exclusion 4) | – | – | – | 36.4
6 | CUUUUGUGAGGAUAUUAAUAGUAAGUAAAUAAAAUUAUUACUAAGAAGGCACAUGAGGAUCACCCAUGUUUCUC [EX4 #83] (Eterna round: R97, puzzle: Exclusion 4) | 76.8 | – | 41.8 | –
7 | CUUUUGUGAGGAUAUUAGUAGUAAAUAAAUAAAAUUACUACUGAGAAGGCACAUGAGGAUCACCCAUGUUCCUC [Salish 062 v16] (Eterna round: R97, puzzle: Exclusion 4) | 358 | – | 42.9 | –
8 | CUUUUGUGAGGAUAUUAGUAGUAAAUAAAUAAAAUUACUACUGAGAAGGCACAUGAGGAUCACCCAUGUUCCUC [salish99_ex4_r3_041] (Eterna round: R96, puzzle: Exclusion 4) | 424 | 32.8 | 35.4 | –
9 | CUUUUGUGAGGAUAUUAGUAGUAAAUAAAUAAAAUUACUACUGAGAAGGCACAUGAGGAUCACCCAUGUUCCUC [salish99_ex4_r3_041] (puzzle: Exclusion 4) | – | – | – | 34.6
10 | CUUUUGUGAGGAUAUUAGUAGUAAAUAAAUAAAAUUACUACUUAGAAGGCACAUGAGGAUCACCCAUGUUCCUC [salish99_ex4_r3_043] (Eterna round: R96, puzzle: Exclusion 4) | 238 | 25.8 | 29.6 | –
11 | CUUUUGUGAGGAUAUUAGUAGUAAAUAAAUAAAAUUACUACUUAGAAGGCACAUGAGGAUCACCCAUGUUCCUC [salish99_ex4_r3_043] (puzzle: Exclusion 4) | – | – | – | 28.3
12 | CUUUUGUGAGGAUAUUAGUAGUAAAUAAAUAAAAUUACUAUUGAGAAGGCACAUGAGGAUCACCCAUGUUCCUC [salish99_ex4_r3_064] (puzzle: Exclusion 4) | – | – | – | 30.3
13 | CUUUUGUGAGGAUAUUAGUAGUAAAUAAAUAAAAUUAUUACUGAGAAGGCACAUGAGGAUCACCCAUGUUCCUU [Salish 062 v20] (Eterna round: R97, puzzle: Exclusion 4) | 63.6 | – | 17 | –
14 | CUUUUGUGAGGAUAUUAGUAGUAAAUUAAUAAAAUUACUACUGAGAAGGCACAUGAGGAUCACCCAUGUUCCUC [salish99_ex4_r3_054] (puzzle: Exclusion 4) | – | – | – | 39.7
15 | CUUUUGUGAGGAUAUUAGUAGUAAGUAAAUAAAAUUAUUACUAAGAAGGCACAUGAGGAUCACCCAUGUUCCUC [EX4 #81] (Eterna round: R97, puzzle: Exclusion 4) | 108 | – | 58 | –
